According to US7318921B2, “Therapeutic compositions that alter the immune response” (AltaRex Medical Corp., priority 1996, dated 2008):

Columns and labels:
CA125 [1] = target: T1, CA125 (Homo sapiens, UniProt Q8WXI7); assay: Inhibition of binding of patients' anti-CA125 antibodies to CA125 (solid phase); classification Ab3/Ab1c; conditions: inhibitor at 10500 U/ml
Description: Anti-CA 125 positive samples were tested for inhibition of their binding to CA 125 (solid phase) by CA 125, MAb-B43.13 scFv, MAb-B27.1 F(ab′), or MAb M11 F(ab′). Single chain MAb-B43.13, F(ab′) MAb-B27.1, and F(ab′) M11 were used in the inhibition studies to avoid non-specific inhibition of the Fc portion of the antibody and cross-reactivity due to HAMA. To be considered to be significant, inhibition had to be at least 15%.
Thus, if the patients serum contained anti-CA125 antibodies that were inhibitable by MAb-B43.13 only, it was classified as containing Ab3; those inhibitable by MAb-B27.1 were classified as Ab1c. In other words, injecting a binding agent such as an antibody against a single epitope on a multi-epitopic antigen leads to generation of a humoral and cellular response against a different epitope on the antigen.
Method: 86 ovarian cancer patients with active disease were tested for the presence of antibodies against CA125. None of the patients had antibodies against CA125 before injection of MAb-B43.13. The patients were injected with 2 mg of MAb-B43.13 at varying time intervals (e.g., see Table 5 for some of the patients). Sera from these patients were analyzed for the presence of human anti-CA125 antibodies by their ability to bind to the CA125 [R. Madiyalakan et al, Hybridoma, 14:199-203 1995)]. […]

[2] = system: CA125 specific mouse T-cells; assay: Proliferation of CA125 specific T-cells with stimulated peritoneal macrophages ([3H]-thymidine uptake); format: cell-based; conditions: macrophages stimulated with agent, presented to CA125 specific mouse T-cells; 1 μug/ml of the antibody and 100 Units/ml CA125; mean of three experiments
Source text: Enhanced antigen-presentation of antigen-antibody complexes was attributed to facilitated antigen uptake via the Fcγ-receptor (macrophages, dendritic cells) or membrane-bound Ig (B cells) on professional antigen-presenting cells (APC). […] Accordingly, various professional APC can be involved in the preferential presentation of the CA125-MAb-B43.13 complex. We tested B cells with two different specificities as well as macrophages as APC: CA125-specific B cells (from mice immunized with CA125) and anti-MAb-B43.13-specific B cells (from mice immunized with MAb-B43.13). Normal B cells served as control. […] Enhanced presentation of immune complexes by macrophages and dendritic cells is mediated by preferential uptake via the FcγR. FIG. 4 confirms that CA125 is presented more efficiently by macrophages, if complexed with an antigen specific antibody.
Better cellular immune response was observed when the UV exposed antibody was presented in association with the antigen to T-cells. Thus, macrophages isolated from mouse peritoneal cavities were stimulated with native B43.13 or UV exposed B43.13 in association with CA125 and presented to CA125 specific mouse T-cells isolated from mice injected with CA125. Control experiments included stimulation of the macrophages without the antigen. […]

CA125 [3] = target: T1, CA125; assay: in vitro studies, method not stated
FcγR = conditions: complexed with anti-tetanus toxoid IgG; measured by TH cell activation; cited from earlier work

CA125: soluble multi-epitopic tumor associated antigen of epithelial ovarian cancers
Inhibition, No. of Positives/Total (CA125 [1]; anti-CA125 positive samples of patients injected with MAb-B43.13, positive = inhibition at least 15%): 26/28
Inhibition, positives (%) (CA125 [1]; anti-CA125 positive samples): (92.8) %
STIMULATION INDEX [2]: 2.76

MAb-B43.13 (antibody)
binding capacity (units of CA 125 per 1 ng of MAb-B43.13) (CA125 [3]): 10

tetanus toxoid
increase in processing and presentation of the antigen (FcγR): 10-1000 -fold
